Read-outs that look alike come from different tables or passages of the source.
T1: human SEMA4A expressed on cells (UniProt ID Q9H3S1, isoform 1) (human, UniProt Q9H3S1 33-761)
T1 sequence: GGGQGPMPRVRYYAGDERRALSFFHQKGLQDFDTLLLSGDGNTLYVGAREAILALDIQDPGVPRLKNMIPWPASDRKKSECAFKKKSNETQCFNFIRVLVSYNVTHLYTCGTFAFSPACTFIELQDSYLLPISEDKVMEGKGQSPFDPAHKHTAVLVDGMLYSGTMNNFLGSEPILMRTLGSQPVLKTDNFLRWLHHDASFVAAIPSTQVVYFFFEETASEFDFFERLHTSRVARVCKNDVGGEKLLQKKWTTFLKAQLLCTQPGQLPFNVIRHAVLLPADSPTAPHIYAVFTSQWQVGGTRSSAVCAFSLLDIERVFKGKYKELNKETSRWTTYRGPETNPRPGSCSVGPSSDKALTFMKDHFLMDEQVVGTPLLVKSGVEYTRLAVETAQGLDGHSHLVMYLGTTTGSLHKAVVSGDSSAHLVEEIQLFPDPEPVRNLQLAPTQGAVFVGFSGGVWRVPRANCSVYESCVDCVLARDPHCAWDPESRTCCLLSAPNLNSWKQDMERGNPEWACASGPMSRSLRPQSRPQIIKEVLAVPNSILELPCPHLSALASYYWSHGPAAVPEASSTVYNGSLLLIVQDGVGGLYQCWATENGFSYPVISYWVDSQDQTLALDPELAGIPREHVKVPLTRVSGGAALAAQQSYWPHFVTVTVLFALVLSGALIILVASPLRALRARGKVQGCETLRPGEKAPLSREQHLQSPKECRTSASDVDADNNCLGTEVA

T2: human SEMA4B expressed on expi293 cells (human, UniProt Q9NPR2 44-837)
T2 construct: whole, on cells
T2 sequence (looked up): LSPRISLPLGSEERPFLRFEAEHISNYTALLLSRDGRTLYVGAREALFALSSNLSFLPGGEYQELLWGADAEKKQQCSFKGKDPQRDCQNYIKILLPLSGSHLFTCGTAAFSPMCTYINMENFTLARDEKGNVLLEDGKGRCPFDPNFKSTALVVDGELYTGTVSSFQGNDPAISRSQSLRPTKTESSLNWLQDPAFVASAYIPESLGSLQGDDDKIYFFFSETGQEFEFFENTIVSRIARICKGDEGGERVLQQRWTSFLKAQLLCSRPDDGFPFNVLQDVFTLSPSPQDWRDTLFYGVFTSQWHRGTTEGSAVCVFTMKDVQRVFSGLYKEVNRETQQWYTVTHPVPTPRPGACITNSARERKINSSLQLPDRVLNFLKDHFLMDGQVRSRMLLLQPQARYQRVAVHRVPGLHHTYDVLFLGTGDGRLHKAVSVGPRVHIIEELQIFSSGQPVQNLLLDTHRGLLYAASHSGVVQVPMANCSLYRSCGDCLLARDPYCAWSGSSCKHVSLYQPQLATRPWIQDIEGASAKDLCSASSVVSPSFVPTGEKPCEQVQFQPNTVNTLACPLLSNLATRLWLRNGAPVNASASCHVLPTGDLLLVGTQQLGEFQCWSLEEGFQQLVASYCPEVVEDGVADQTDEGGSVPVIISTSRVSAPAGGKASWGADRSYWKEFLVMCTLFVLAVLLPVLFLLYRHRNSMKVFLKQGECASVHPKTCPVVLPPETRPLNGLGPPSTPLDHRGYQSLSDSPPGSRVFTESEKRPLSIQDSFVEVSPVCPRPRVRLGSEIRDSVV


How the values were obtained:
[1] = target: T1, human SEMA4A expressed on cells …; assay: cell-based or functional assay
[2] = target: T1, human SEMA4A expressed on cells …; assay: cell-based or functional assay; remark: listed apart in the source
[3] = target: T1, human SEMA4A expressed on cells …; assay: flow cytometry on NCI-H929 cells endogenously expressing human SEMA4A, 10-point titration
Description: Binding of SEMA4A specific IgGs to membrane-bound SEMA4A was evaluated using flow cytometry in NCI-H929 cells that endogenously express human SEMA4A. Binding assays were performed by incubating the anti-SEMA4A antibodies with 200,000 cells for 3 hours at 4° C. followed by two washes with PBS, 1% (w/v) BSA (FACS buffer). A range of antibody concentrations were evaluated using a 10-point, 3-fold dilution series. Cells were then incubated with Alexa Fluor 647 conjugated AffiniPure Fab Fragment Goat Anti-Human IgG (H+L) (Jackson Immunoresearch Europe Limited, Ely, Cambridgeshire) diluted 1:100, at 4° C. for 1 hour, followed by two washes in FACS buffer. Cells were then stained with LIVE/DEAD™ Fixable Violet Dead Cell Stain (Life Technologies, L34955) for 30 minutes at 4° C., followed by two washes in FACS buffer. Cells were then fixed using BD Cell Fix (BD Biosciences, 340181). Fluorescence of live, single cells was measured using a Novocyte™ 3000 flow cytometer and Novoexpress software (Acea Biosciences, Inc, San Diego, CA). Data were analysed using FlowJo software (FlowJo, LLC, Ashland, OR). Mean fluorescence intensity values were plotted against antibody conjugate concentrations and KD values determined using Prism software (GraphPad Software Inc, La Jolla, CA).

[4] = target: T2, human SEMA4B expressed on expi293 cells; assay: Mirrorball direct binding, dilution series on expi293 cells transiently transfected with human SEMA4B, anti-human Alexa Fluor 647
Description: To determine the specificity profile of each purified human Alya IgG1 conjugated to McMMAF, a dilution series was tested for binding to human SEMA4A, human SEMA4B and mock transfected cells (transient transfections set up in expi 293 cells.) The three assays employed methods described in section 2.3, using the appropriate cells and substituting the un-purified scFv periplasmic preparation with the human Alya IgG1 conjugated to McMMAF. Data was analysed as Count x median mean intensity (x FLU).

[5] = target: T1, human SEMA4A expressed on cells …; assay: cell-based or functional assay; remark: listed apart in the source

Row | Binder | Average KARPAS 25 IC50 [pM], cell kill [1] | Average MM1.S IC50 [pM], cell kill [1] | Average NCI-H929 IC50 [pM], cell kill [1] | EC50 (nM), Fab-pHast internalisation into NCI-H929 [2] | Fold-Change at 6 hours (10 nM), Fab-pHast internalisation [2] | Kd [3] | binding result [4] | Average MM1.S IC50 [pM], cell kill [5] | Average NCI-H929 IC50 [pM], cell kill [5]
1 | 5Hg1-5Lg1 human Alya IgG1 conjugated to McMMAF (antibody, V domains shown, McMMAF on the engineered cysteines 239iCys and S442C (EU numbering) of the heavy constant region, Antibody-drug conjugate; human IgG1 Alya constant; also called 5Hg1/5Lg1-McMMAF) VH: QVQLVQSGAEVKKPGASVKVSCKASGYTFTDYWMHWVRQAPGQGLEWMGAIDTSDSYTSYNQKFKGRVTMTRDTSTSTVYMELSSLRSEDTAVYYCARDYGNFYYYAMDYWGQGTLVTVSS VL: QAVVTQEPSLTVSPGGTVTLTCRSSTGAVTTSNYANWFQQKPGQAPRTLIYGTNNRAPWTPARFSGSLLGGKAALTLSGAQPEDEAEYYCALWYSNHWVFGGGTKLTVL | 625 pM | 35.8 pM | 100 pM | 0.54 nM | 121 fold | 1.46 nM | no binding (tested: log (M) -8 (1e-8 M)) |  | 
2 | mouse 5E3 as human Alya IgG1 conjugated to McMMAF (antibody, V domains shown, McMMAF on the engineered cysteines 239iCys and S442C (EU numbering) of the heavy constant region, Antibody-drug conjugate; human IgG1 Alya constant, drug-to-antibody ratio of four; also called Mouse 5E3-McMMAF) VH: QVQLQQPGAELVMPGASVKMSCKASGYTFTDYWMHWVKQRPGQGLEWIGAIDTSDSYTSYNQKFKGKATLTVDESSSTAYMQLSSLTSEDSAVYYCARDYGNFYYYAMDYWGQGTSVTVSS VL: QAVVTQESALTTSPGETVTLTCRSSTGAVTTSNYANWVQEKPDHLFTGLIGGTNNRAPGVPARFSGSLIGDKAALTITGAQTEDEAIYFCALWYSNHWVFGGGTKLTVL | 126 pM | 5.95 pM | 7.53 pM | 0.25 nM | 160 fold | 3.18 nM | no binding (tested: log (M) -8 (1e-8 M)) | 5.8 pM | 5.1 pM
3 | 5Hg2-5Lg2 human Alya IgG1 conjugated to McMMAF (antibody, V domains shown, McMMAF on the engineered cysteines 239iCys and S442C (EU numbering) of the heavy constant region, Antibody-drug conjugate; human IgG1 Alya constant; also called 5Hg2/5Lg2-McMMAF) VH: QVQLVQSGAEVKKPGASVKVSCKASGYTFTDYWMHWVRQAPGQRLEWMGAIDTSDSYTSYNQKFKGRVTITRDTSASTAYMELSSLRSEDTAVYYCARDYGNFYYYAMDYWGQGTLVTVSS VL: QAVVTQEPSLTVSPGGTVTLTCRSSTGAVTTSNYANWFQQKPGQAPRTLIYGTNNRAPWTPARFSGSLLGGKAALTLLGAQPEDEAEYYCALWYSNHWVFGGGTKLTVL | 181 pM | 10.7 pM | 34.3 pM | 0.59 nM | 103 fold | 2.46 nM | no binding (tested: log (M) -8 (1e-8 M)) |  | 
4 | C0120903 human Alya IgG1 conjugated to McMMAF (antibody, V domains shown, McMMAF on the engineered cysteines 239iCys and S442C (EU numbering) of the heavy constant region, Antibody-drug conjugate; human IgG1 Alya constant; also called C0120903-McMMAF) VH: EVQLVQSGAEVKKPGSSMKVSCKASGGTFNSYTINWVRQAPGQGLEWVGGFIPIFGTADYAQKFHGRVAITADESMSTAYMELSSLRSEDTAVYYCARAPLGSEPFDYWGQGTMVTVSS VL: SYVLTQPPSVSVAPGQTARITCGGNNIGSKSVHWYQQKPGQAPVLVVYDDSDRPSGIPERFSGSNSGNTATLTISRVEAGDEADYYCQVWDSSSDHLVFGGGTKLTVL |  |  |  | 0.98 nM | 118 fold | 9.88 nM | no binding (tested: log (M) -8 (1e-8 M)) | 8.8 pM | 7.1 pM
5 | C0120905 human Alya IgG1 conjugated to McMMAF (antibody, V domains shown, McMMAF on the engineered cysteines 239iCys and S442C (EU numbering) of the heavy constant region, Antibody-drug conjugate; human IgG1 Alya constant; also called C0120905-McMMAF) VH: not shown VL: NFMLTQPHSVSESPGKTVTISCTGSGGNIVDNFVQWHQQRPGSAPRTVIYEDDQRPSGVPDRFSASVDSSSNSGTLSISGLKTEDEADYYCQSYDGANRWVFGGGTKLTVL |  |  |  | 3.72 nM | 91 fold | 34.3 nM | no binding (tested: log (M) -8 (1e-8 M)) | 63.5 pM | 90.8 pM
6 | C0120906 human Alya IgG1 conjugated to McMMAF (antibody, V domains shown, McMMAF on the engineered cysteines 239iCys and S442C (EU numbering) of the heavy constant region, Antibody-drug conjugate; human IgG1 Alya constant; also called C0120906-McMMAF) VH: EVQLVQSGPEVKKPGASVKISCKASGYKLNDPGVHGVSWVRQAPGQGLEWMGWISTLNGDTRYAQKFQGRVTMATDSSTSTIYMDLRSLKSDDTALYYCARDDYTAIFDFWGRGTLVTVSS VL: QSVLTQPPSVSVAPGQTASITCGGSNIGSQSVHWYQQKPGQAPVLVVYDDSDRPSGIPERFSGSKSGNTASLILSRVEAGDEADYYCQVWDSSTDHHVFGTGTKVTVL |  |  |  | 4.1 nM | 116 fold | 9.67 nM | no binding (tested: log (M) -8 (1e-8 M)) | 4.7 pM | 3 pM
7 | C0120914 human Alya IgG1 conjugated to McMMAF (antibody, V domains shown, McMMAF on the engineered cysteines 239iCys and S442C (EU numbering) of the heavy constant region, Antibody-drug conjugate; human IgG1 Alya constant; also called C0120914-McMMAF) VH: QVQLQESGPGLVKPSETLSLTCTVSGGSVSSGRYDWSWIRQPPGKGLEWIGHIYYTGITDYNPSLRSRVTISADKPKNQFSLKLNSVTAADTAVYYCARGPFFDPWGQGTMVTVSS VL: QSVLTQPPSVSVAPGQTASLTCGANNIGSKSVQWYQQKPGQAPVLVVYDGSDRPSGIPDRFSGSSSENTATLTISRVEAGDEADYYCQLWDSVTDRPVFGGGTKVTVL |  |  |  | 3.29 nM | 112 fold | 9.04 nM | no binding (tested: log (M) -8 (1e-8 M)) | 1.1 pM | 2.5 pM
8 | C0120917 human Alya IgG1 conjugated to McMMAF (antibody, V domains shown, McMMAF on the engineered cysteines 239iCys and S442C (EU numbering) of the heavy constant region, Antibody-drug conjugate; human IgG1 Alya constant; also called C0120917-McMMAF) VH: not shown VL: NFMLTQPHSVSESPGKTVTISCTASGDTLDNKYVNWYQVRPGSAPATLIFHYEERDSGVPDRFSGSFDASSNSASLTISGLQTADEADYFCQSYDSKRDNLVVFGGGTKVTVL |  |  |  | 8.29 nM | 53 fold | 40.5 nM | no binding (tested: log (M) -8 (1e-8 M)) | 10.9 pM | 18.1 pM
9 | C0120918 human Alya IgG1 conjugated to McMMAF (antibody, V domains shown, McMMAF on the engineered cysteines 239iCys and S442C (EU numbering) of the heavy constant region, Antibody-drug conjugate; human IgG1 Alya constant; also called C0120918-McMMAF) VH: not shown VL: SYELTQPPSVSVSPGQTARITCSGDALPKQYAYWYQQKPGQAPVLVIYKDSERPSGIPERFSGSSSGTTVTLTISGVQAEDEADYYCQSADSSGTWVFGGGTKVTVL |  |  |  | 3.62 nM | 79 fold | 1.6 nM | no binding (tested: log (M) -8 (1e-8 M)) | 13.2 pM | 55.8 pM
